US20250332265A1, “PSMA TARGETED CONJUGATE COMPOUNDS AND USES THEREOF” (priority 2021, published 2025)

Columns and labels:
[1] = molecular target: T1, PSMA (Homo sapiens, UniProt Q04609); experiment: Competition binding studies, Example 2
T1 construct: expressed in transfected cells; host or cells: PC3pip cells (PC3 retrovirally transduced with PSMA), from Dr. Michel Sadelain, MSKCC
Description: PC3pip cells ([…]) was suspended in 200 μL of 50 mM Tris buffer, pH 7.5. The cells were incubated at 37° C. with different concentrations of PSMA-1-MMAE-IR700 or ZJ24 in the presence of 12 nM of 3H-ZJ24 for 1 h. The cells were then washed 3 times with cold PBS and cell-associated radioactivity was measured by scintillation counting. The concentration required to inhibit 50% of the binding (IC50) was determined by GraphPad Prism 3.0. Studies were performed in triplicate.

[2] = Pharmacokinetic studies based on fluorescence; assay type: in vivo, mice; settings: after 4 h post injection almost all drug was cleared
Source text: Prostate cancer is highly heterogeneous, which will affect treatment response, drug resistance and clinical outcome. The use of combination therapies with different mechanisms of action will offer potential advantages over a single therapy and it can be an effective way to deal with the ‘heterogeneity’ of cancer cells. […] The use of anticancer drugs is therefore limited by unwanted side effects. To overcome these problems, we have developed a multifunctional molecule named PSMA-1-MMAE-IR700 that combines chemotherapy, PDT, and imaging in a single molecule that is targeted to PSMA. PSMA is over expressed almost exclusively on prostate cancer (FIG. 6A). MMAE was selected as the chemotherapeutic drug because of its high potency, its wide use in antibody drug conjugates, its synergy with PDT and the fact that we have successfully targeted it to PSMA for the treatment of prostate cancer with a greater therapeutic index when compared to a PSMA-targeted antibody drug conjugate using MMAE. IR700 was selected as the photosensitizer due to its good water-solubility, its high fluorescence quantum yield and singlet oxygen yield, its long wavelength absorption (690 nm), and the fact that a cetuximab-IR700 conjugate (RM-1929) has been approved in Japan for local regional treatment of head and neck cancer. […] The fluorescence from IR700 allowed visualization of uptake studies of PSMA-1-MMAE-IR700. […]

[3] = Stability in mouse plasma; assay type: in vitro ADME
Source text: To synthesize PSMA-1-MMAE-IR700 (FIG. 6A), we used a self-immolative cathespsin cleavable Vc linker to conjugate MMAE to PSMA-1-Cys-C6-Lys. IR700 was conjugated to the PSMA-1 ligand through reaction of the Lys amine (—NH2) with NHS ester as no IR700 release is required for light activation. […] Degradation of PSMA-1-MMAE-IR700 led to release of free MMAE.

T1 sequence (Q04609 whole entry): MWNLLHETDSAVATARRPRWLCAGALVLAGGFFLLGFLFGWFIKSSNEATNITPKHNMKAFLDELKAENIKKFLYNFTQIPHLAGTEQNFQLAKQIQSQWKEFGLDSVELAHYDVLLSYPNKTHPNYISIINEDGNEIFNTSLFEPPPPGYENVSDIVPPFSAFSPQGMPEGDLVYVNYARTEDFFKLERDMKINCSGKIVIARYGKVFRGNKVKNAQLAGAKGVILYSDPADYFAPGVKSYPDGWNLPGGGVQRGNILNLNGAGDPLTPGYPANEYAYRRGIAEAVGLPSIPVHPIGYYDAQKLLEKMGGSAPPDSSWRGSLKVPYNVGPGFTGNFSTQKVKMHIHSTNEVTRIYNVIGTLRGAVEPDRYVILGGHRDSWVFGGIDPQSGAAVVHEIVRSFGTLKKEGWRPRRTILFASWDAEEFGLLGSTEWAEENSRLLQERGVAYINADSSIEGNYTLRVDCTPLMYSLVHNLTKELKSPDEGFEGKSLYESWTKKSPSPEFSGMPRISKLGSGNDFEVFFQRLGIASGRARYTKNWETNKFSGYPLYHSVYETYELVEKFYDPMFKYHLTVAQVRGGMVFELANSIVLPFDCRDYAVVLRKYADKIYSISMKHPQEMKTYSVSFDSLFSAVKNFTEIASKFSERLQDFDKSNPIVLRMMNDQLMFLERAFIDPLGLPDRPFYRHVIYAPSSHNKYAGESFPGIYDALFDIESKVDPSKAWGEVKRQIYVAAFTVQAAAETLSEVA

SMILES: CC[C@H](C)[C@@H]([C@@H](CC(=O)N1CCC[C@H]1[C@H](OC)[C@@H](C)C(=O)N[C@H](C)[C@@H](O)c1ccccc1)OC)N(C)C(=O)[C@@H](NC(=O)[C@H](C(C)C)N(C)C(=O)OCc1ccc(NC(=O)[C@H](CCCNC(N)=O)NC(=O)[C@@H](NC(=O)CCCCCN2C(=O)CC(SC[C@H](NC(=O)[C@H](CCC(=O)O)NC(=O)[C@H](CCC(=O)O)NC(=O)[C@H](CCC(=O)O)NC(=O)CCCCCNC(=O)[C@H]3CC[C@H](CNC(=O)CC[C@H](NC(=O)N[C@@H](CCC(=O)O)C(=O)O)C(=O)O)CC3)C(=O)NCCCCCC(=O)N[C@@H](CCCCNC(=O)CCCCCNC(=O)OCCCOc3cccc4c5n6c(c34)=NC3=NC(=Nc4c7ccccc7c(n4[Si]6(O[Si](C)(C)CCC[N+](CCCS(=O)(=O)[O-])(CCCS(=O)(=O)O)CCCS(=O)(=O)O)O[Si](C)(C)CCC[N+](CCCS(=O)(=O)[O-])(CCCS(=O)(=O)O)CCCS(=O)(=O)O)N=C4N=C(N=5)c5ccccc54)c4ccccc43)C(N)=O)C2=O)C(C)C)cc1)C(C)C (stereo partly drawn) [PSMA-1-MMAE-IR700]
- binding relative to ZJ24 [1]: 4.4 fold
- clearance from the blood [2]: cleared quickly from the blood
- half-life [3]: 17.2 ± 2.8 h
